From patent publication US6884600B1, “Protein phosphatase-1 catalytic subunit interactions” (Medical Research Council London, priority 1996, dated 2005) come the findings set out here.

The target of experiment [1] is T1, PP1c (Oryctolagus cuniculus, UniProt P62143).
T1 construct: from tissue; host or cells: rabbit skeletal muscle (PP1G dissociated with LiBr)
The experiment in a line: Phosphorylase phosphatase activity of PP1c. In kind it is biochemical, rabbit. On the procedure:
A,B; Effects of M110-(M1-E309) (closed circles), M110-(M1-F38) (open circles) and M110-(D39-E309) (open triangles) on the MLC20 phosphatase […] and phosphorylase phosphatase (B) activities of PP1c were measured after incubating PP1c for 15 minutes at 30° C. with each fragment. The results are presented as a percentage of those obtained in experiments where the M110 fragments were omitted.
C,D; The effect of M110-(M1-A150) (open circles) and M110-(L24-Y496) (closed circles) on the MLC20 phosphatase (C) and phosphorylase phosphatase (D) activities of PP1c were measured as in A,B.
(B) The phosphorylase phosphatase activity of PP1c was assayed as in A in the presence or absence of 1 μM GM-(G63-T93) and 1.0 nM M110-(M1-E309). The results are presented (SEM for three experiments) as a percentage of the PP1c activity measured in the absence of GM-(63-T93), M110-(M1-F38) or M110-(M1-E309).
The myosin-associated form of PP1 (PP1M) was from chicken gizzard and the glycogen-associated form of PP1 (PP1G) from rabbit skeletal muscle. The β isoform of PP1c was released from PP1G by incubation for 2 hours in 2M LiBr, then purified by gel-filtration on a 30×1 cm column of Superose 12 (Pharmacia, Milton Keynes, U.K.) in the presence of 0.5M LiBr. Glycogen protein particles from rat liver were used as the source of hepatic PP1G Digoxygenin-labelled PP1c (γ1-isoform, hereafter termed PP1) was prepared as in [9]. GL was expressed in E. coli as a glutathione-S-transferase (GST) fusion protein [7], termed GST-GL. The catalytic subunit of PP2A from bovine heart (PP2AC) was provided by Dr R. MacKintosh in this Unit. The phosphorylatable myosin light chain (MLC20) and heavy meromyosin from chicken gizzard were a gift from Dr M. Ikebe (Case Western Reserve University, Cleveland, USA). Thrombin and benzamidine-Agarose were purchased from Sigma (Poole, UK).
(§1) ^32P-labelled rabbit skeletal muscle phosphorylase a (containing 1.0 mol phosphate per mol subunit) was prepared by phosphorylation with phosphorylase kinase, ^32P-labelled rabbit skeletal muscle glycogen synthase (containing 1.5 mol/mol subunit in the sites 3 region) was prepared by phosphorylation with glycogen synthase kinase-3 [24]). ^32P-labelled chicken gizzard MLC20 and ^32P-labelled chicken gizzard heavy meromyosin (containing 1.0 mol phosphate per mol subunit) were prepared by phosphorylation with smooth muscle myosin light chain kinase. The dephosphorylation of phosphorylase a (10 μM), glycogen synthase (1 μM) and MLC20 (1 μM) and heavy meromyosin (1 μM) was carried out as in [24]. One unit of activity (U) was that amount which released […] of phosphate in one minute.
PP1c was isolated from the rabbit skeletal muscle PP1-GM complex as described previously (Johnson et al, 1996). Glycogen particles isolated from rat liver (Schelling el al, 1988) served as the source of PP1-GL. The dephosphorylation of glycogen phosphorylase (10 μM) and the isolated MLC20 of smooth muscle myosin (1 μM) by PP1c was carried out as described previously (Cohen et al., 1988; Alessi et al., 1992).

Experiment [2] concerns M21 subunit. The experiment in a line: Far Western blotting: interaction with the M21 subunit. In kind it is binding, chicken. Conditions: probe 0.2 μg/ml. The method, boiled down:
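Proteins (PP1M, M110 and M21 fragments, MBP or GST fusions) resolved on 12% or 16.5% SDS gels, transferred to nitrocellulose and probed with digoxigenin-labelled M21, M21-(M1-L146) or MBP-M110-(K933-I1004) at 0.2 μg/ml. Parallel gels Coomassie-stained; protein by Bradford.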

Experiment [3] concerns the target T1, PP1c. Description: Glycogen synthase phosphatase activity of PP1c. In kind it is biochemical, rabbit. On the procedure:
The glycogen synthase phosphatase activity of PP1c was measured after a 15 minute incubation at 30° C. with the indicated concentrations of M110-(M1-F38) and M110-(M1-E309). Similar results were obtained in three different experiments.
as §1

T1 sequence (P62143 whole entry): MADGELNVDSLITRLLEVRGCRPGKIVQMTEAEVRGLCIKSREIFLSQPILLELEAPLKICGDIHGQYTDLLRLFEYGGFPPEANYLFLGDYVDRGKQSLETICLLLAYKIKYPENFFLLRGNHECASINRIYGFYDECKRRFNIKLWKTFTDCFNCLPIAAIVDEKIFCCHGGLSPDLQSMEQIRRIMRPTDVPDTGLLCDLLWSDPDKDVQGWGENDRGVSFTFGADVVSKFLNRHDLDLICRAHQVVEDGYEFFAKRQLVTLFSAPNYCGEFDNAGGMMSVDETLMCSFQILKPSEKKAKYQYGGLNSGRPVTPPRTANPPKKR
Sequence of M21 subunit (as listed by the source): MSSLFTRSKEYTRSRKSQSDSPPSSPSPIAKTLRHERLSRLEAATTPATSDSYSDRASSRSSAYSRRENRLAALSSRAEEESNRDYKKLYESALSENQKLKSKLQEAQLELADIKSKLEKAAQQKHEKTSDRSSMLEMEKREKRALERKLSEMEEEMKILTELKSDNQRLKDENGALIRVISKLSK

B1: M110-(M1-E309): rat aorta M110 fragment, residues 1-309, released from GST-fusion protein with thrombin (protein)
chain: GSPGMKMADAKQKRNEQLKRWIGSETDLEPPVVKRQKTKVKFDDGAVFLAACSSGDTDEVLKLLHRGADINYANVDGLTALHQACIDDNVDMVKFLVENGANINQPDNEGWIPLHAAASCGYLDIAEFLIGQGAHVGAVNSEGDTPLDIAEEEAMEELLQNEVNRQGVDIEAARKEEERIMLRDARQWLNSGHISDVRHAKSGGTALHVAAAKGYTEVLKLLIQAGYDVNIKDYDGWTPLHAAAHWGKEEACRILVDNLCDMETVNKVGQTAFDVADEDILGYLEELQKKQNLLHSEKRDKKSPLIESTANMEA
B1: in experiment [1], the “suppression of PP1c activity towards glycogen phosphorylase” value is “about 80%”. Besides, the “recognised by digoxigenin-labelled M21 subunit in Far Western blotting” value in experiment [2] was “not”. In experiment [3], the “effect on the dephosphorylation of glycogen synthase by PP1c” value is reported as “inhibited”.
